Target: Kaposi's sarcoma-associated herpesvirus (KSHV) ORF68 protein (Kaposi's sarcoma-associated herpesvirus (KSHV))
Assay: SEC

“Kaposi's sarcoma-associated herpesvirus (KSHV) ORF68 protein (natural protein)” was tested, and the stoichiometry N was 5.

Reference: article doi:10.1101/322719
